Laboratory results as given in the supplement of paper PMC7125110.
± gives the standard error. Fewer inactive variants are shown than the library holds.

B1: glmS ribozyme (parent)
chain: AUAAAAGCGCCAGAACUACAGAAAUGUAGUUGACGAGGAGGAGGUUUAUCGAAUUUUCGGCGGAUGCCUCCAAA

Tests used:
Conditions in all cases: with glucosamine-6-phosphate
glucosamine-6-phosphate [1] = variants of: B1; test: self-cleavage kobs at 160 uM GlcN6P; higher = faster cleavage; RNA array
Procedure, shortened: (§1)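 Barcoded ribozyme variants, transcribed in situ by E. coli RNA polymerase on sequenced MiSeq chips, were followed via a hybridised Cy3 probe at 37 °C. Glucosamine-6-phosphate ranged from 40 μM to 10 mM in HEPES/KCl/Mg(OAc)2 buffer. kobs came from decay fits to per-tile medians, and kcat and KM from weighted Michaelis–Menten fits.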

glucosamine-6-phosphate [2] = variants of: B1; test: self-cleavage kobs at 2500 uM GlcN6P; higher = faster cleavage; RNA array
Procedure, shortened: as §1

glucosamine-6-phosphate [3] = variants of: B1; test: self-cleavage kobs at 640 uM GlcN6P; higher = faster cleavage; RNA array
Procedure, shortened: as §1

glucosamine-6-phosphate [4] = variants of: B1; test: self-cleavage kobs at 10000 uM GlcN6P; higher = faster cleavage; RNA array
Procedure, shortened: as §1

| Variant | self-cleavage kobs at 160 uM GlcN6P (glucosamine-6-phosphate [1]) [s⁻¹] | self-cleavage kobs at 2500 uM GlcN6P (glucosamine-6-phosphate [2]) [s⁻¹] | self-cleavage kobs at 640 uM GlcN6P (glucosamine-6-phosphate [3]) [s⁻¹] | self-cleavage kobs at 10000 uM GlcN6P (glucosamine-6-phosphate [4]) [s⁻¹] |
| --- | --- | --- | --- | --- |
| G32U A48G G63C | < 1e-05 | < 1e-05 |  |  |
| C34U C50G C68A | 9.29e-05 ± 2.9e-05 | 9.73e-05 ± 2.8e-05 |  |  |
| C34U U56C G66C | < 1e-05 | < 1e-05 |  |  |
| A39G A52U C61G A64C | < 1e-05 | < 1e-05 | < 1e-05 |  |
| G40C C50U U57A C58G U65A | < 1e-05 | < 1e-05 |  |  |
| G38U G60C | < 1e-05 |  | < 1e-05 |  |
| A39U A42G G60U | < 1e-05 |  | < 1e-05 |  |
| A33G C34A U55A C70A | 0.00034 ± 0.00013 |  | 9.12e-05 ± 3.4e-05 |  |
| A33U G35A | < 1e-05 | < 1e-05 | < 1e-05 |  |
| G37C G41A C50G G60A C67G C68A | 9.12e-05 ± 1.6e-05 | 9.58e-05 ± 1.3e-05 | 8.46e-05 ± 1.9e-05 |  |
| G35U U45G U46G A64G | < 1e-05 | < 1e-05 | < 1e-05 |  |
| G35A A36U U55A | < 1e-05 |  |  |  |
| G35A G62U | < 1e-05 | < 1e-05 |  | < 1e-05 |
| G35A G62C | < 1e-05 | < 1e-05 | < 1e-05 |  |
| A36C A39G C68U | < 1e-05 |  | < 1e-05 |  |
| G35U A64U | < 1e-05 | < 1e-05 | < 1e-05 | < 1e-05 |
| G40A A48G C50G | < 1e-05 | < 1e-05 |  |  |
| G35U C50U | < 1e-05 |  |  | < 1e-05 |
| U31A C61G | < 1e-05 |  |  | < 1e-05 |
| C34A G35C | < 1e-05 | < 1e-05 |  |  |
| A33C G44U | < 1e-05 | < 1e-05 | < 1e-05 | < 1e-05 |
| G37A G60A G66U | < 1e-05 |  |  |  |
| U31G A33U U47G | < 1e-05 |  |  |  |
| G38C G62U | < 1e-05 | < 1e-05 |  | < 1e-05 |
| G35C G40C A52C | < 1e-05 | < 1e-05 | < 1e-05 |  |
| G38C A39G | < 1e-05 |  | < 1e-05 |  |

| Variant | self-cleavage kobs at 160 uM GlcN6P (glucosamine-6-phosphate [1]) [s⁻¹] | self-cleavage kobs at 2500 uM GlcN6P (glucosamine-6-phosphate [2]) [s⁻¹] | self-cleavage kobs at 640 uM GlcN6P (glucosamine-6-phosphate [3]) [s⁻¹] | self-cleavage kobs at 10000 uM GlcN6P (glucosamine-6-phosphate [4]) [s⁻¹] |
| --- | --- | --- | --- | --- |
| C34A A36G A39U A48C | < 1e-05 | < 1e-05 |  |  |
| G38A C61U C70G | < 1e-05 |  |  |  |
| A39G C50G | 0.000247 ± 0.00011 |  |  |  |
| A33U U47A G62U A64G C71U | < 1e-05 |  | < 1e-05 |  |
| G32U A52U | < 1e-05 | < 1e-05 | < 1e-05 |  |
| U31C G41A G59U | < 1e-05 | < 1e-05 | < 1e-05 |  |
| G37A C50G C71A | 0.000356 ± 0.00012 | 6.17e-05 ± 2.4e-05 | 0.000114 ± 3.6e-05 |  |
| C34U G43U C50A G51U U55G | < 1e-05 |  |  |  |
| C34G U56C | < 1e-05 |  |  |  |
| A36U G40U | < 1e-05 |  | < 1e-05 | < 1e-05 |
| G38C G63A | < 1e-05 | < 1e-05 | < 1e-05 |  |
| G32C G38U G43A C67A | < 1e-05 | < 1e-05 |  |  |
| A36C G37A U46A G66U | < 1e-05 | < 1e-05 | < 1e-05 |  |
| U31C U56G G60C | < 1e-05 |  | < 1e-05 | < 1e-05 |
| G38C G44U C50U | < 1e-05 |  | < 1e-05 |  |
| G35U A42C | < 1e-05 | < 1e-05 | < 1e-05 |  |
| G32U U45G C70A | < 1e-05 |  | < 1e-05 |  |
| A36G A48G | < 1e-05 | < 1e-05 | < 1e-05 | < 1e-05 |
| U31A G35C A48G | < 1e-05 |  | < 1e-05 |  |
| C34U U45C U65A | < 1e-05 |  | < 1e-05 |  |
| A33U C68A C70G | < 1e-05 | < 1e-05 |  |  |
| U30G G32A G35A C67U | < 1e-05 |  | < 1e-05 |  |
| U30G U54G U56G | 0.00021 ± 5.7e-05 | 0.00255 ± 0.00053 | 0.000994 ± 0.00019 |  |
| A33U G38A A48G G66U U69G | 4.81e-05 ± 1.6e-05 |  | 0.000108 ± 2.9e-05 |  |
| A33C A39C A52U C70U | < 1e-05 |  | < 1e-05 |  |
| A36U G51C | < 1e-05 |  | < 1e-05 | < 1e-05 |

| Variant | self-cleavage kobs at 160 uM GlcN6P (glucosamine-6-phosphate [1]) [s⁻¹] | self-cleavage kobs at 2500 uM GlcN6P (glucosamine-6-phosphate [2]) [s⁻¹] | self-cleavage kobs at 640 uM GlcN6P (glucosamine-6-phosphate [3]) [s⁻¹] | self-cleavage kobs at 10000 uM GlcN6P (glucosamine-6-phosphate [4]) [s⁻¹] |
| --- | --- | --- | --- | --- |
| C34G G40U G41A C58U | < 1e-05 |  | < 1e-05 |  |
| U30G G41C G60A | < 1e-05 | < 1e-05 |  |  |
| G37C G43C A52C | < 1e-05 | < 1e-05 |  |  |
| A33U G41U A52U | < 1e-05 | < 1e-05 | < 1e-05 |  |
| G35U U49G | < 1e-05 | < 1e-05 | < 1e-05 | < 1e-05 |
| G32U G60U | < 1e-05 | < 1e-05 | < 1e-05 |  |
| C34G U47A | < 1e-05 | < 1e-05 | < 1e-05 |  |
| G38A G60U | < 1e-05 | < 1e-05 | < 1e-05 | < 1e-05 |
| C34G A36C G38U A64C | < 1e-05 |  |  |  |
| G35U C67A | < 1e-05 | < 1e-05 | < 1e-05 |  |
| A39U U54C G62C | < 1e-05 | < 1e-05 | < 1e-05 |  |
| G38A G41A C71A | < 1e-05 | < 1e-05 |  |  |
| G38A G40A U49G G60U | < 1e-05 | < 1e-05 | < 1e-05 |  |
| A33C G37A G63C | < 1e-05 | < 1e-05 | < 1e-05 |  |
| G32U C50A G59A | < 1e-05 |  | < 1e-05 |  |
| G35U A53U G60U | < 1e-05 |  | < 1e-05 |  |
| G35C G60A C68A | < 1e-05 |  | < 1e-05 |  |
| G38U G43A C58G U65C | < 1e-05 |  |  |  |
| G35A C58G | < 1e-05 | < 1e-05 |  |  |
| A36U U57G | < 1e-05 | < 1e-05 |  | < 1e-05 |
| G37A G38A | < 1e-05 | < 1e-05 | < 1e-05 | < 1e-05 |
| G32C G63U | < 1e-05 |  | < 1e-05 |  |
| U31C U69A | 4.12e-05 ± 1.4e-05 | 5.91e-05 ± 1.4e-05 |  |  |
| A36C U45C | < 1e-05 | < 1e-05 | < 1e-05 |  |
| G32U A42C | < 1e-05 | < 1e-05 | < 1e-05 |  |
| U31A G51A | < 1e-05 | < 1e-05 | < 1e-05 | < 1e-05 |

| Variant | self-cleavage kobs at 160 uM GlcN6P (glucosamine-6-phosphate [1]) [s⁻¹] | self-cleavage kobs at 2500 uM GlcN6P (glucosamine-6-phosphate [2]) [s⁻¹] | self-cleavage kobs at 640 uM GlcN6P (glucosamine-6-phosphate [3]) [s⁻¹] | self-cleavage kobs at 10000 uM GlcN6P (glucosamine-6-phosphate [4]) [s⁻¹] |
| --- | --- | --- | --- | --- |
| G32U G41U G60A | < 1e-05 | < 1e-05 |  |  |
| C34U G63A G66U | < 1e-05 |  | < 1e-05 |  |
| G35C U57G G59C | < 1e-05 |  |  |  |
| U30C U46G U54A | < 1e-05 |  |  |  |
| G32C G44A A48U | < 1e-05 | < 1e-05 | < 1e-05 |  |
| G38U G43U U65C | < 1e-05 |  |  |  |
| A33U G35U A42U G44U | < 1e-05 | < 1e-05 | < 1e-05 |  |
| A36G G41C A53U | < 1e-05 |  | < 1e-05 |  |
| A39C G44U U46C G60U G63C C68A C71A | < 1e-05 | < 1e-05 | < 1e-05 |  |
| G35C C67G | < 1e-05 | < 1e-05 | < 1e-05 |  |
| A36U G63C C67U | < 1e-05 | < 1e-05 | < 1e-05 |  |
| A36U U46A | < 1e-05 | < 1e-05 | < 1e-05 | < 1e-05 |
| A36C G41A G66U | < 1e-05 | < 1e-05 |  |  |
| G37A G38U U55C | < 1e-05 |  | < 1e-05 |  |
| G35C C50A G51U A52C | < 1e-05 |  | < 1e-05 |  |
| G32U G51U | < 1e-05 |  | < 1e-05 |  |
| G35C U46C C50A | < 1e-05 |  |  | < 1e-05 |
| A33G A53C G59A | < 1e-05 | < 1e-05 |  | < 1e-05 |
| U31C A52U C71G | < 1e-05 |  |  |  |
| G35C A36U C58U | < 1e-05 | < 1e-05 |  |  |
| G32C C34A C67G C70A | < 1e-05 |  |  |  |
| G35U A39U | < 1e-05 | < 1e-05 | < 1e-05 |  |
| A39C U57G C71A | < 1e-05 | < 1e-05 | < 1e-05 |  |
| A33C G59C C61G A64G | < 1e-05 |  | < 1e-05 |  |
| A36G A64U C71U | < 1e-05 | < 1e-05 | < 1e-05 |  |
| G32C A39C U45A U56G | < 1e-05 |  |  |  |
